Results reported in patent publication US11059842B2, “Monosaccharide amine and 3-nitro-2-phenyl-2H-chromene based inhibitors of glucose kinases” (UNIVERSITY OF SOUTH CAROLINA, priority 2019, dated 2021).

What was measured:
[1] = substrate: O=C[C@H](O)[C@@H](O)[C@H](O)[C@H](O)CO; assay: HsHxKIV Michaelis-Menten kinetics; format: biochemical, Homo sapiens; conditions: other: substrate; triplicate runs
Experimental: (§1) D-Glucose was also tested as a control with alternative substrates. The protein expression work for TcGlcK and HsHxKIV were each made possible through the E. coli strain BL21(DE3) system. Purification of each enzyme was performed through cobalt-NTA chromatography followed by size-exclusion chromatography; assessment of purity was performed by SDS-PAGE. In enzymatic assays, a time-optimum (TOPT) was determined to be 120 seconds for TcGlcK and 600 seconds for HsHxKIV; all assays were run at room temperature. A general reaction scheme included a first reaction in which the monosaccharide, ATP, and Mg^2+ react with the enzyme, e.g., TcGlcK, forming a hexose-phosphate and ADP. In a second reaction, hexose-phosphate with the assistance of glucose-6-phosphate dehydrogenase (G6PDH) and NADP^+ was converted to the lactone form of the hexose-phosphate and NADPH. Fluorescence of NADPH was monitored using a fluorescence microplate reader with […] wavelengths of 340 nm and 485 nm, respectively.
(§2) FIG. 4 and FIG. 5 present typical Michaelis-Menten enzyme kinetic plots for D-glucose. […] Michaelis-Menten constant (KM) values, which were used as the set final assay concentrations of substrates D-glucose and ATP for the primary screens, were determined for both TcGlcK and HsHxKIV in triplicate runs. […]

[2] = substrate: O=C[C@H](O)[C@@H](O)[C@H](O)[C@H](O)CO; assay: TcGlcK Michaelis-Menten kinetics and substrate range; format: biochemical, Trypanosoma cruzi; conditions: other: substrate; triplicate runs
Experimental: as §1, with “In a second reaction, hexose-phosphate with the assistance of glucose-6-phosphate dehydrogenase (G6PDH) and NADP^+ was converted to the lactone form of the hexose-phosphate and NADPH.” left out
as §2
All phosphorylated hexoses were shown getting converted into their corresponding products by G6PDH, in abundant quantities through a 30-second time frame. […]

B1: HsHxKIV (Homo sapiens) (protein)
chain: MLDDRARMEAAKKEKVEQILAEFQLQEEDLKKVMRRMQKEMDRGLRLETHEEASVKMLPTYVRSTPEGSEVGDFLSLDLGGTNFRVMLVKVGEGEEGQWSVKTKHQMYSIPEDAMTGTAEMLFDYISECISDFLDKHQMKHKKLPLGFTFSFPVRHEDIDKGILLNWTKGFKASGAEGNNVVGLLRDAIKRRGDFEMDVVAMVNDTVATMISCYYEDHQCEVGMIVGTGCNACYMEEMQNVELVEGDEGRMCVNTEWGAFGDSGELDEFLLEYDRLVDESSANPGQQLYEKLIGGKYMGELVRLVLLRLVDENLLFHGEASEQLRTRGAFETRFVSQVESDTGDRKQIYNILSTLGLRPSTTDCDIVRRACESVSTRAAHMCSAGLAGVINRMRESRSEDVMRITVGVDGSVYKLHPSFKERFHASVRRLTPSCEITFIESEEGSGRGAALVSAVACKKACMLGQ
- Km [1]: 43 mM

B2: TcGlcK (Trypanosoma cruzi strain CL Brener) (protein)
chain: MNIKELSLHELCEELKTPAWNVPLTFVGDVGGTSARMGFVREGKNDSVHACVTRYSMKRKDITELIEFFNEIIELMPASVIKRVKAGVINVPGPVTGGAVGGPFNNLKGIARLSDYPKALFPPGRSAILNDLEAGGFGVLAVSDAHVFSEYFGVMWEGTQWRTCEQEPAGSVIGRGRCLVLAPGTGLGSSLIYYNPMNQQHIVVPLELGSQTIPMRKDIDYIQTLHAELKLLPNYENMVSGAGLEFHYRQVVRGSRPPCSAGEIAKLASEGDANACKAMKKYHEYLMRVGSEASMALLPLTIVLVGDNIVNNAFFYRNPQNLKEMHREALNHEMERFGFQSRVTYLRQKKLLNLNLMGCYRCGLDLSVGKKQKAQL
- Km [2]: 0.40 mM
